The values below are quoted from earlier work in US5763478A, “Triterpene derivatives with immunosuppressant activity” (Merck & Co., Inc., priority 1996, dated 1998).

The IC50 is the concentration needed to halve the response being measured.

The target of this data set is T1, KV 1.3 channels (CHO cells transfected with KV 1.3) (Homo sapiens, UniProt P22001).
T1 construct: expressed in transfected cells; host or cells: CHO cells
The note with it: reference blocker used at saturating concentration to set the efflux window.

T1 sequence (P22001 53-575 limits assumed): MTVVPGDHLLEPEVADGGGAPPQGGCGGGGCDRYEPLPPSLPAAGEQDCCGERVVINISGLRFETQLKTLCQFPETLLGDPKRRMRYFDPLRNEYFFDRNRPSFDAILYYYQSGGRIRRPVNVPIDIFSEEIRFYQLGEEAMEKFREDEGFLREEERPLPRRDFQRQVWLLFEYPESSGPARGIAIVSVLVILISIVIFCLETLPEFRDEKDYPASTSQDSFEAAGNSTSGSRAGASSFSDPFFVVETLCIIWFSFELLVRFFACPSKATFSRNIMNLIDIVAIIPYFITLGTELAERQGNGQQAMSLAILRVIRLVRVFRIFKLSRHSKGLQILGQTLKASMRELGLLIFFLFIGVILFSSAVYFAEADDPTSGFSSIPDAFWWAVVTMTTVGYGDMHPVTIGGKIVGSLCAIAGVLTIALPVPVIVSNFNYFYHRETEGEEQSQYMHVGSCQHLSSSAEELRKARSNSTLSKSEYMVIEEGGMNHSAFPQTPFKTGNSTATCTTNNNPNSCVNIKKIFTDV

In the case of “margatoxin (TIINVKCTSPKQCLPPCKAQFGQSAGAKCMNGKCKCYPH; UniProt P40755 1-39, looked up)”, the IC50 is 0.1 nM.
